# Experimental data published in patent US20160122395A1, “Immunogenic compositions and a process for producing same” (THE […] INSTITUTE FOR MEDICAL RESEARCH AND PUBLIC HEALTH LTD, priority 2013, published 2016).
# Assays:
# [1] = target: HIV-1 AD8 gp120, wild type (HIV-1 (AD8 strain)); experiment: 35S pulse-chase labelling, immunoprecipitation, gp120-shedding index
# [2] = target: HIV-1 AD8 gp120 T138N (HIV-1 (AD8 strain)); experiment: as above
# [3] = tested on: HIV-1; conditions: monotherapy, HIV-1 infected individuals; cited from earlier work
# [4] = target: HIV-1 AD8 Env ΔN139INN/K601N (HIV-1 (AD8 strain)); experiment: cell-based or functional assay
# [5] = target: HIV-1 AD8 envelope glycoprotein (Env), wild type (HIV-1 (AD8 strain)); experiment: cell-based or functional assay
# [6] = tested on: HIV-1AD8 WL/KH/DE virus; experiment: Neutralization assay in TZM-bl cells, WL/KH/DE virus; type: cell-based
# [7] = tested on: HIV-1AD8 WL/KH virus; experiment: Neutralization assay in TZM-bl cells, WL/KH virus; type: cell-based
substance,measurement,setting,value
HIV-1 AD8 gp41 K601D,"gp120 shedding into culture supernatant, fold with respect to WT",[1],6.8 fold
same,"improvement of gp120-gp41 association, fold with respect to K601D",[2],2 fold
Ibalizumab: αCD4bs antibody used as monotherapy of HIV-1 infected individuals,viral load,[3],transient drop in viral load to nadir levels followed by a rebound in viral titre
HIV-1 AD8 gp41 K601N,"gp120 shedding into culture supernatant, fold with respect to WT",[1],4.4 fold
C34 fusion inhibitor peptide,"IC50, inhibition of Env-mediated cell-cell fusion by C34 (luciferase)",[4],100 nM
same,"IC50, inhibition of Env-mediated cell-cell fusion by C34 (luciferase)",[5],100 nM
maraviroc,neutralization compared to the WT,[6],to similar extents
same,neutralization compared to the WT,[7],to similar extents
